For the assay, the target named is Aeropyrum pernix KvAP voltage-dependent potassium channel (Aeropyrum pernix) (UniProt Q9YDF8). Description: inhibition of KvAP channel currents by CTX, channels in planar lipid bilayers.

1 substance from patent US20090075394A1 can be followed below.

Usually Kd stands for the constant that tells how readily two partners part at equilibrium.

Chain of Aeropyrum pernix KvAP voltage-dependent potassium channel (Aeropyrum pernix) (Q9YDF8 14-295): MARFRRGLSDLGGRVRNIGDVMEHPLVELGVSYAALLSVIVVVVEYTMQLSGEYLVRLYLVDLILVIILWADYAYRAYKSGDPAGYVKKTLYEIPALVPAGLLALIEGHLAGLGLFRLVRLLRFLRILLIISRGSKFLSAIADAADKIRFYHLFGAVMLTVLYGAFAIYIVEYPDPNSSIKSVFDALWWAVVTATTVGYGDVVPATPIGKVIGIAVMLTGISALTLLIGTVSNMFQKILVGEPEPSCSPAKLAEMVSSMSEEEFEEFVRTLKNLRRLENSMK

“charybdotoxin (from UniProt P13487 23-59) (peptide)” registered a Kd of 400 µM.
